# Results taken from the Immune Epitope Database (IEDB).
# pKd: −log10 of the molar value.
# Experiments:
# [1] = molecular target: HLA-B*15:03; test: IEDB peptide-MHC binding, purified MHC/competitive/radioactivity; filed as Kd, often an IC50 or EC50 that approximates it; ≥ and ≤ were set here for values at or beyond the usual limits of such assays
# [2] = molecular target: HLA-B*15:01; test: as above
# [3] = molecular target: HLA-B*44:03; test: as above
# [4] = molecular target: HLA-B*44:02; test: as above
# [5] = molecular target: HLA-B*40:01; test: as above
# [6] = molecular target: HLA-B*40:02; test: as above
# [7] = molecular target: HLA-B*18:01; test: as above
# [8] = molecular target: HLA-B*45:01; test: as above
# [9] = molecular target: HLA-B*08:01; test: as above
# [10] = molecular target: HLA-A*30:01; test: as above
# [11] = molecular target: HLA-A*32:01; test: as above
# [12] = molecular target: HLA-A*31:01; test: as above
# [13] = molecular target: HLA-A*01:01; test: as above
# [14] = molecular target: HLA-A*68:01; test: as above
# [15] = molecular target: HLA-A*02:01; test: as above
# [16] = molecular target: HLA-A*11:01; test: as above
# [17] = molecular target: HLA-B*54:01; test: as above
# [18] = molecular target: HLA-A*02:02; test: as above
# [19] = molecular target: HLA-A*68:02; test: as above
# [20] = molecular target: HLA-A*02:03; test: as above
# [21] = molecular target: HLA-B*53:01; test: as above
# [22] = molecular target: HLA-B*07:02; test: as above
# [23] = molecular target: HLA-A*33:01; test: as above
# [24] = molecular target: HLA-A*03:01; test: as above
# [25] = molecular target: HLA-A*02:06; test: as above
# [26] = molecular target: HLA-B*51:01; test: as above
# [27] = molecular target: HLA-B*35:01; test: as above
# [28] = molecular target: HLA-A*29:02; test: as above; details: source organism: Vaccinia virus WR
# [29] = molecular target: HLA-A*26:01; test: as above; details: source organism: Vaccinia virus WR
# [30] = molecular target: HLA-A*23:01; test: as above; details: source organism: Vaccinia virus WR
# [31] = molecular target: HLA-A*30:02; test: as above; details: source organism: Vaccinia virus WR
# [32] = molecular target: HLA-A*24:02; test: as above; details: source organism: Vaccinia virus WR
# [33] = molecular target: HLA-B*40:01; test: IEDB peptide-MHC binding, purified MHC/direct/fluorescence; filed as Kd, often an IC50 or EC50 that approximates it; ≥ and ≤ were set here for values at or beyond the usual limits of such assays; details: source organism: Entamoeba histolytica HM-1:IMSS
# [34] = molecular target: HLA-B*18:01; test: as above; details: source organism: Entamoeba histolytica HM-1:IMSS
# [35] = source organism: Vaccinia virus WR
# [36] = source organism: SARS coronavirus Tor2
# [37] = source organism: Mammarenavirus brazilense
# [38] = source organism: Mammarenavirus lassaense
# [39] = source organism: Hepacivirus hominis
# [40] = source organism: Vaccinia virus Copenhagen
# [41] = source organism: Triticum aestivum
sequence,measurement,setting,value
IMALIVSIF,pKd,[1]; source organism: Vaccinia virus,8.34
MMSMYGKAF,pKd,[2]; [35],8.50
same,pKd,[1]; [35],8.58
LPVIFLSIF,pKd,[1]; [35],6.79
SDRVVFVLWA,pKd,[3]; [36],6.13
same,pKd,[4]; [36],6.18
same,pKd,[5]; [36],4.83
same,pKd,[6]; [36],4.78
same,pKd,[7]; [36],≤ 4.58
same,pKd,[8]; [36],5.71
PDFNELFQL,pKd,[3]; [37],≤ 4.64
same,pKd,[4]; [37],≤ 4.54
same,pKd,[5]; [37],≤ 4.63
same,pKd,[6]; [37],5.77
same,pKd,[7]; [37],≤ 4.11
same,pKd,[8]; [37],≤ 4.11
KDPLITSGC,pKd,[3]; [38],≤ 4.11
same,pKd,[4]; [38],≤ 4.11
same,pKd,[5]; [38],4.76
same,pKd,[6]; [38],5.35
same,pKd,[7]; [38],≤ 4.11
same,pKd,[8]; [38],≤ 4.11
FPKNDFVSF,pKd,[9]; [35],7.81
same,pKd,[2]; [35],7.98
same,pKd,[1]; [35],8.37
same,pKd,[10]; [35],5.04
same,pKd,[11]; [35],≤ 4.27
GEENFSSRMY,pKd,[3]; [36],7.17
same,pKd,[4]; [36],7.24
same,pKd,[5]; [36],5.07
same,pKd,[6]; [36],4.85
same,pKd,[7]; [36],5.40
same,pKd,[8]; [36],5.49
SSVREVFYF,pKd,[1]; [35],6.91
KKVIGFVSI,pKd,[1]; [35],8.13
SQYLSRVSL,pKd,[1]; [35],9.63
FIKNKIHLL,pKd,[9]; [35],9.09
same,pKd,[2]; [35],7.01
same,pKd,[1]; [35],5.16
same,pKd,[10]; [35],5.60
same,pKd,[11]; [35],5.55
FELCDNPFF,pKd,[3]; [36],7.24
same,pKd,[4]; [36],7.49
same,pKd,[5]; [36],7.45
same,pKd,[6]; [36],7.02
same,pKd,[7]; [36],6.68
same,pKd,[8]; [36],4.75
HSKKKCDDL,pKd,[12]; [39],≤ 4.11
same,pKd,[13]; [39],≤ 4.27
same,pKd,[14]; [39],≤ 4.11
same,pKd,[15]; [39],≤ 4.16
same,pKd,[9]; [39],≤ 4.24
same,pKd,[16]; [39],≤ 4.11
same,pKd,[17]; [39],≤ 4.11
same,pKd,[18]; [39],≤ 4.15
same,pKd,[19]; [39],≤ 4.16
same,pKd,[20]; [39],≤ 4.15
same,pKd,[21]; [39],≤ 4.24
same,pKd,[22]; [39],≤ 4.18
same,pKd,[23]; [39],≤ 4.11
same,pKd,[24]; [39],≤ 4.11
same,pKd,[25]; [39],≤ 4.11
same,pKd,[26]; [39],≤ 4.28
same,pKd,[27]; [39],≤ 4.11
CLNNSLMSF,pKd,[1]; [40],9.11
LEGSISYSEL,pKd,[3]; [36],5.82
same,pKd,[4]; [36],5.25
same,pKd,[5]; [36],7.21
same,pKd,[6]; [36],6.81
same,pKd,[7]; [36],≤ 4.35
same,pKd,[8]; [36],5.66
FMLMETMFF,pKd,[1]; [35],9.73
NEYRQYLDA,pKd,[3]; [36],4.96
same,pKd,[4]; [36],4.91
same,pKd,[5]; [36],5.75
same,pKd,[6]; [36],6.03
same,pKd,[7]; [36],5.62
same,pKd,[8]; [36],7.01
EEVNIDNSF,pKd,[1]; [35],5.92
CPNSYDSIM,pKd,[3]; [38],5.12
same,pKd,[17]; [38],5.80
same,pKd,[21]; [38],7.38
same,pKd,[22]; [38],6.85
same,pKd,[26]; [38],5.64
same,pKd,[27]; [38],8.09
SSRRYRCSF,pKd,[9]; [35],7.94
same,pKd,[2]; [35],6.17
same,pKd,[1]; [35],7.26
NLLCHIYSL,pKd,[9]; [35],9.51
same,pKd,[2]; [35],5.71
same,pKd,[1]; [35],5.69
same,pKd,[10]; [35],7.25
same,pKd,[11]; [35],6.64
RLYSEGLSI,pKd,[2]; [35],8.34
same,pKd,[1]; [35],7.50
YTLYKKLSF,pKd,[9]; [40],7.79
same,pKd,[2]; [40],7.84
same,pKd,[1]; [40],7.42
same,pKd,[10]; [40],7.65
same,pKd,[11]; [40],6.71
LKSVETSSL,pKd,[1]; [40],8.42
LPAMCNVY,pKd,[17]; [41],5.55
same,pKd,[21]; [41],5.97
same,pKd,[22]; [41],≤ 4.67
same,pKd,[26]; [41],5.24
same,pKd,[27]; [41],7.38
KTSTLIFFV,pKd,[13]; [35],5.73
same,pKd,[28],5.58
same,pKd,[17]; [35],4.86
same,pKd,[18]; [35],8.86
same,pKd,[29],5.32
same,pKd,[19]; [35],7.33
same,pKd,[20]; [35],6.81
same,pKd,[21]; [35],4.82
same,pKd,[22]; [35],≤ 4.52
same,pKd,[30],5.04
same,pKd,[31],6.60
same,pKd,[32],5.18
same,pKd,[25]; [35],8.75
same,pKd,[26]; [35],4.94
same,pKd,[27]; [35],≤ 4.45
YEYVLIGIL,pKd,[33],≥ 9.00
same,pKd,[34],8.40
SLTIKDSSNK,pKd,[12]; [35],≤ 4.15
same,pKd,[14]; [35],≤ 4.28
same,pKd,[15]; [35],≤ 4.16
same,pKd,[16]; [35],≤ 4.60
same,pKd,[17]; [35],≤ 4.16
same,pKd,[18]; [35],≤ 4.15
same,pKd,[19]; [35],≤ 4.16
same,pKd,[20]; [35],≤ 4.15
same,pKd,[21]; [35],≤ 4.16
same,pKd,[22]; [35],≤ 4.28
same,pKd,[23]; [35],≤ 4.15
same,pKd,[24]; [35],5.01
same,pKd,[25]; [35],≤ 4.16
same,pKd,[26]; [35],≤ 4.16
same,pKd,[27]; [35],≤ 4.33
RIRRFRRPM,pKd,[9]; [35],8.05
same,pKd,[2]; [35],7.44
same,pKd,[1]; [35],7.52
same,pKd,[10]; [35],8.36
same,pKd,[11]; [35],6.11
KIGMFNLTF,pKd,[9]; [35],≤ 4.44
same,pKd,[2]; [35],9.68
same,pKd,[1]; [35],7.90
same,pKd,[10]; [35],5.32
same,pKd,[11]; [35],9.57
KTSSFKISK,pKd,[9]; [35],≤ 4.50
same,pKd,[2]; [35],≤ 4.21
same,pKd,[1]; [35],≤ 4.17
same,pKd,[10]; [35],7.06
same,pKd,[11]; [35],≤ 4.64
IKFAAGIII,pKd,[1]; [35],7.80
